Substrate in the series: O=C(O)c1ccc(O)cc1
Kind of series: cells, lysate or membranes.

B1: E. coli UbiA (EcUbiA) (Escherichia coli K-12; R60A) (protein)
chain: MEWSLTQNKLLAFHRLMRTDKPIGALLLLWPTLWALWVATPGVPQLWILAVFVAGVWLMAAAGCVVNDYADRKFDGHVKRTANRPLPSGAVTEKEARALFVVLVLISFLLVLTLNTMTILLSIAALALAWVYPFMKRYTHLPQVVLGAAFGWSIPMAFAAVSESVPLSCWLMFLANILWAVAYDTQYAMVDRDDDVKIGIKSTAILFGQYDKLIIGILQIGVLALMAIIGELNGLGWGYYWSILVAGALFVYQQKLIANREREACFKAFMNNNYVGLVLFLGLAMSYWHF
In general, Km refers to the substrate concentration at which the rate is half of its maximum. Regarding B1, the Km came to 3000 µM.
